B1: YNL106C 1030-1043 (peptide)
chain: HSTPKPLPPVPALS
B2: YMR277W 194-207 (peptide)
chain: IAEWKNDPNNPNFE
B3: YOR322C 264-277 (peptide)
chain: IAVTRSIPRGPDKN
B4: YDR266C 250-263 (peptide)
chain: HISDKMNPASPQYF
B5: YKR067W 8-21 (peptide)
chain: HNAAKPIPHVPQAS
B6: YAL048C 356-369 (peptide)
chain: HRLFKSTPGLPKLW
B7: YNL287W 476-489 (peptide)
chain: HLLGKEGPSAPNPS
B8: YKR028W 906-919 (peptide)
chain: HFPSRSQPSDPKLQ
B9: YOR335C 27-40 (peptide)
chain: HKFVKSSPVVPFDD
B10: YGR010W 26-39 (peptide)
chain: HTIPKSGPIVPYVL
B11: YKR051W 375-388 (peptide)
chain: IAGQRTFPEDPNYP
B12: YPL148C 31-44 (peptide)
chain: HILEKYSPFDPSGR
B13: YPR056W 317-330 (peptide)
chain: IAKLKRKPVVPRLK
B14: YHR070W 477-490 (peptide)
chain: HLVRKVAPTKPMYS

Biological target: T1, Boi1 SH3 (BOI1_YEAST), P38041
T1 chain: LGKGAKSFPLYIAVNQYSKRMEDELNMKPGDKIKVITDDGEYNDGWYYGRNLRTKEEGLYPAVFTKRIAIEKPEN
Test: SPOT array

Binder	normalised SPOT signal, Boehringer light units (BLU); mean over the file's lines of this peptide
B1	1.1
B2	69.4
B3	256
B4	113
B5	114
B6	226
B7	89
B8	91.5
B9	247
B10	58.4
B11	45.1
B12	26.1
B13	136
B14	283

Biological target: T2, Yfr024 SH3 (LSB3_YEAST), P43603
T2 chain: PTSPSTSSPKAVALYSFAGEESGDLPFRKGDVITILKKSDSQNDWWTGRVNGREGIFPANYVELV
Test: SPOT array

Binder	normalised SPOT signal, Boehringer light units (BLU); mean over the file's lines of this peptide
B1	470
B2	0
B3	555
B4	161
B5	8.5
B6	2840
B7	14.5
B8	294
B9	122
B10	47.8
B11	89.6
B12	82.7
B13	489
B14	947

Biological target: T3, Boi2 SH3 (BOI2_YEAST), P39969
T3 chain: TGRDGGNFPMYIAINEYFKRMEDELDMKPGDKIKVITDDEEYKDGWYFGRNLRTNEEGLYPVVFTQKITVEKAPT
Test: SPOT array

Binder	normalised SPOT signal, Boehringer light units (BLU); mean over the file's lines of this peptide
B1	28.4
B2	28.7
B3	34.5
B4	18.2
B5	1.8
B6	123
B7	22.1
B8	17.7
B9	7.2
B10	33.2
B11	0
B12	19.3
B13	39.8
B14	69.3

Biological target: T4, Rvs167 SH3 (RV167_YEAST), P39743
T4 chain: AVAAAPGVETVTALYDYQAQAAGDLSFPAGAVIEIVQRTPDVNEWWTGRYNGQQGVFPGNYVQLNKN
Test: SPOT array

Binder	normalised SPOT signal, Boehringer light units (BLU); mean over the file's lines of this peptide
B1	94.4
B2	20.5
B3	283
B4	30.3
B5	20.6
B6	605
B7	49.5
B8	68.1
B9	153
B10	28.2
B11	28.7
B12	15.9
B13	29.5
B14	252

The binders below were run against Sho1 SH3 (SHO1_YEAST), P40073 (assay: SPOT array).
Chain of Sho1 SH3 (SHO1_YEAST), P40073 (P40073 295-366): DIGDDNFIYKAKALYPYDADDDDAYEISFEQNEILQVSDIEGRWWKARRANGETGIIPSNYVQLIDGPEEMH

Binder	normalised SPOT signal, Boehringer light units (BLU); mean over the file's lines of this peptide
B1	21600
B2	25.5
B3	65
B4	115
B5	82.1
B6	642
B7	69.5
B8	321
B9	53.1
B10	42.1
B11	43.4
B12	89.5
B13	57.1
B14	121

Biological target: T5, Myo5 SH3 (MYO5_YEAST), Q04439
T5 chain: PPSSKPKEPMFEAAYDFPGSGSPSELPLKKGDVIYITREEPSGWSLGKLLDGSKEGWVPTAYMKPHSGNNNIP
Test: SPOT array

Binder	normalised SPOT signal, Boehringer light units (BLU); mean over the file's lines of this peptide
B1	144
B2	91.1
B3	158
B4	159
B5	62.3
B6	266
B7	124
B8	258
B9	151
B10	164
B11	172
B12	166
B13	888
B14	478

Biological target: T6, Yhr016c SH3 (YSC84_YEAST), P32793
T6 chain: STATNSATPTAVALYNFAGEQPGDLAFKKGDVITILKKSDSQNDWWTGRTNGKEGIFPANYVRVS
Test: SPOT array

Binder	normalised SPOT signal, Boehringer light units (BLU); mean over the file's lines of this peptide
B1	29.9
B2	9.5
B3	43.3
B4	27.4
B5	59.3
B6	96.9
B7	39.7
B8	32.6
B9	40.3
B10	18.7
B11	16
B12	34.1
B13	87.4
B14	70.2

Reference: paper PMC314469, “Protein Interaction Networks by Proteome Peptide Scanning” (PLoS Biology, 2004)
